biological target: T1, soluble human B7-H4 recombinant protein (human, UniProt Q7Z7D3 25-259); assay: ELISA, hybridoma culture supernatant diluted 2 times on immobilized free form of B7-H4
T1 construct: also called a free form of B7-H4
T1 sequence: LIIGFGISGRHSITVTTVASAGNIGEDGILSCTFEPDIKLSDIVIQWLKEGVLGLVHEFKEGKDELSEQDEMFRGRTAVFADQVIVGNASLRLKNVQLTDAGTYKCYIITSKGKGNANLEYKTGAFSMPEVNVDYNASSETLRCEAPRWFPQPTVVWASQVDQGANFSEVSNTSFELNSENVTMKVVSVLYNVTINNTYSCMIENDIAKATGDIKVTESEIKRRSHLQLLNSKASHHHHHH
Experimental: Specifically, the free form of B7-H4 was added to a 96 well Immobilizer Amino Plate (Thermo Fisher Scientific) and incubated at room temperature for 2 hours to immobilize the free form of B7-H4 on the plate surface. Simultaneously, wells with no immobilization of the free form of B7-H4 were prepared as negative control. After incubation, the antigen that was not immobilized was removed and the wells were filled with PBS containing 3% BSA and incubated at 4° C. overnight. In this step, nonspecific binding capacity to the plate surface was blocked to produce a plate for ELISA.
The culture supernatant of each of the plurality of hybridoma lines obtained in Example 2 was 2-times diluted with PBS containing 0.05% Tween20 to prepare a supernatant sample. The buffer was removed from the wells of the aforementioned plate for ELISA and then the supernatant sample was added and incubated at room temperature for 2 hours. The plate was washed to remove the unbound antibody and then a horseradish peroxidase (HRP) labeled anti-mouse immunoglobulin antibody (GE Healthcare) was added and incubated for 1 hour. The wells were washed, then a peroxidase substrate (BD Biosciences) was added and incubated for 30 minutes, and a sulfuric acid solution at a concentration of 0.1 M or higher was added to stop the color development. Whether an antibody that recognizes B7-H4 in a supernatant sample was contained was examined by measuring the absorption of the solution in each well at a wavelength of 450 nm.

OD 450 nm | Binder
1.93 OD 450 nm | H4.209 (antibody, V domains shown, Mouse hybridoma monoclonal antibody; also called anti-B7-H4 monoclonal antibody produced from hybridoma clone #209) VH: EVKLVESGGGLVKPGGSLKLSCAASGFTFSNYALSWVRQTPEKRLEWVASISGGGSTYYPDSVKGRFIISRDNARNILYLQMSSLRSEDTAMYYCARGPSYDDYYFDVWG VL: not shown
1.96 OD 450 nm | H4.018 (antibody) chain 1: EVKLVESGGGLVKPGGSLKLSCAASGFTFSSYAMSWVRQTPEKRLEWVATISSGGNYTYYPDSVKGRFTISRDNAKNTLYLQMSSLRSEDTAMYYCARHRYDNNYDYYAMD chain 2: NIQMTQSPSSLAVSAGEKVTMSCKSSHAVLYSSNQKNYLAWYQQKPGQSPKLLIYWASTRDSGVPDRFTGGGSGTDFTLTITNIQPEDLAVYYCHQYLSSWTFGGGTKVEIK
2.02 OD 450 nm | H4.121 (antibody, V domains shown, Mouse hybridoma monoclonal antibody; also called anti-B7-H4 monoclonal antibody produced from hybridoma clone #121) VH: QVQLQQSGAELMKPGASVKISCKATGYTFSSYWIEWVKQRPGHGLEWIGEILHGSDSTNYNENFKGKATFTADTSSNTAYMRLSSLTSEDSAVYYCASHYYGSSPFAYWG VL: not shown
1.06 OD 450 nm | H4.140 (antibody, V domains shown, Mouse hybridoma monoclonal antibody; also called anti-B7-H4 monoclonal antibody produced from hybridoma clone #140) VH: EVQLVESGGDLVKPGGSLKLSCAASGFTFSTYGMSWVRQTPDKRLEWVATISSGGNYTYYPDSVKGRFTISRDNAKNTLYLQMSSLKSEDTAMYYCARPYGNHFDYWG VL: DIQMTQSPASLAASVGETVTITCRASENIYYSLAWYQQKQGKSPQLLIYNANSLEDGVPSRFSGSGSGTQYSMKINSMQPEDTATYFCKQAYDVPYTFG
1.96 OD 450 nm | H4.051 (antibody, V domains shown, Mouse hybridoma monoclonal antibody; also called anti-B7-H4 monoclonal antibody produced from hybridoma clone #51) VH: EVQLQQSGAELVRSGASVKLSCTASGFNIKDFYVHWVKQRPEQGLEWIGWIDPAHVDTEYAPKFQGKTTMTADTSSNTAYLQLSSLTSEDSAVYYCNALLPRTMDYWG VL: DVVLTQTPLSLPVNVGDQASISCKSTKSLLNSDGFTYLDWYLQKPGQSPQLLIYLVSNRFSGVPDRFSGSGSGTDFTLKISRVEAEDLGVYYCFQSNYLPYTFG

biological target: T2, B7-H4 expressed on the membrane surface of cancer cells (human, UniProt Q7Z7D3 25-282); assay: cell-based or functional assay
T2 sequence (looked up): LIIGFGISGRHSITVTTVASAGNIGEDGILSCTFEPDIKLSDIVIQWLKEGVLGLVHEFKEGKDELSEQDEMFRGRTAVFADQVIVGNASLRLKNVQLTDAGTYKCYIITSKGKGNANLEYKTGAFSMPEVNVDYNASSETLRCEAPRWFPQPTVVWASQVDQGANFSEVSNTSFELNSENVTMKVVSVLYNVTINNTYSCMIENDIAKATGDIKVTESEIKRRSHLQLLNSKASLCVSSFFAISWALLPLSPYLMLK

Binder | 50% maximum effective concentration (EC50) of cytotoxicity (% Lysis) to MDA-MB-468 cells, LDH release, with human peripheral blood mononuclear cells, 16 hours
Fab-scFv according to the present invention (bispecific antibody) heavy: not shown light: NIQMTQSPSSLAVSAGEKVTMSCKSSHAVLYSSNQKNYLAWYQQKPGQSPKLLIYWASTRDSGVPDRFTGGGSGTDFTLTITNIQPEDLAVYYCHQYLSSWTFGGGTKVEIKRTVAAPSVFIFPPSDEQLKSGTASVVCLLNNFYPREAKVQWKVDNALQSGNSQESVTGQDSKDSTYSLSSTLALSKADYEKHKVYACEVTHQGLSSPVTKSFNRGEC | 0.013 µg/mL

Source: patent US20190343964A1 (SHIZUOKA PERFECTURE, published 2019)
